# Source: patent publication US20250026850A1 (TRISHULA THERAPEUTICS, published 2025)
# Positions count from the first letter of the chain named.
# T1: human CD39 on cells (human, UniProt P49961 1-510)
# T1 construct: One molecule for all cells that carry human CD39; the cell is named under assay; also called hCD39; cellular CD39
# T1 sequence: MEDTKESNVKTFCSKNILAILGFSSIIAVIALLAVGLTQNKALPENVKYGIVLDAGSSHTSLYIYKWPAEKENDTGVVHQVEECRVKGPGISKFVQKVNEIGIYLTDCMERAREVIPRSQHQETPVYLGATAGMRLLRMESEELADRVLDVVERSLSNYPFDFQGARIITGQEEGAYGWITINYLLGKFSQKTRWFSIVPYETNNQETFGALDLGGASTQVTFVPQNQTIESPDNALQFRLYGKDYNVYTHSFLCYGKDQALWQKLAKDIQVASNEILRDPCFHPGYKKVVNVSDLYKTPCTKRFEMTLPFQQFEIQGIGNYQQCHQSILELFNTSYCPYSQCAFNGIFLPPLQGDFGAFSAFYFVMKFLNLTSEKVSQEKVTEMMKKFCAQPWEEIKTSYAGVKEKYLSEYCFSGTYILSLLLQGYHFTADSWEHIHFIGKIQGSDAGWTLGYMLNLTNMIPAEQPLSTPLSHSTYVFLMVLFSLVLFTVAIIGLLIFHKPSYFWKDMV
# T2: rhCD39-ECD-His (R&D Systems) (human, UniProt P49961 38-478)
# T2 construct: Bought protein; that entry runs on through the C-terminal transmembrane and cytoplasmic residues; also called recombinant human CD39 extracellular domain; soluble recombinant human CD39 (ENTDP1) ECD; not shown: His tag
# T2 sequence: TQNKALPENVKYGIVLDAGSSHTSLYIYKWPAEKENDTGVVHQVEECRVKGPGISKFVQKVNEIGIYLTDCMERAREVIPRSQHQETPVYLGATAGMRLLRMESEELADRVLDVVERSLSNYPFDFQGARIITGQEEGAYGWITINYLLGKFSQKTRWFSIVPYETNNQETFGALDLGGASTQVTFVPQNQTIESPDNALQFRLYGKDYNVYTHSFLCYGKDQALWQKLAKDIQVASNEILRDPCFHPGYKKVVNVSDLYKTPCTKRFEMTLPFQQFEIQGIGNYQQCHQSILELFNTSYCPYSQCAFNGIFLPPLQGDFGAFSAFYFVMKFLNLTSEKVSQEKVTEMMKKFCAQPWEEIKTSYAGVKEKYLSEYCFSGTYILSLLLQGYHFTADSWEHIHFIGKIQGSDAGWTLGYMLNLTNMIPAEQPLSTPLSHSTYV
# T3: cynomolgus macaque (Macaca fascicularis) CD39 on cells (cynomolgus macaque (Macaca fascicularis), UniProt P49961 7-510 (human entry))
# T3 construct: CHO cells engineered to express cyno CD39, or primary cyno B cells and monocytes; also called cyno CD39; cCD39
# T3 chain: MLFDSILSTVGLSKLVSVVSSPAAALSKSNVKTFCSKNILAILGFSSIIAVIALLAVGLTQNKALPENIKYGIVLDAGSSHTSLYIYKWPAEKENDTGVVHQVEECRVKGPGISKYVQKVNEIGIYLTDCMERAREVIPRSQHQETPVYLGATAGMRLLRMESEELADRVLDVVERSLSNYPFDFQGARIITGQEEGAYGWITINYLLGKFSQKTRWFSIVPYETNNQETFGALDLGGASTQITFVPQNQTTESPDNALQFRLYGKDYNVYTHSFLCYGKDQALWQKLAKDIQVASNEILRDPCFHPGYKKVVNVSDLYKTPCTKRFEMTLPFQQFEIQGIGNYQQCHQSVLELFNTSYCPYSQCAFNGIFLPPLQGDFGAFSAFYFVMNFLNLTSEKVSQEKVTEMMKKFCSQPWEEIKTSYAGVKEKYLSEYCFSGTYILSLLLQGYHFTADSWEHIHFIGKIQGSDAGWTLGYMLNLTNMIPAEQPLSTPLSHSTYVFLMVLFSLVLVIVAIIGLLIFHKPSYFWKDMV
# B1: 27590 (antibody, V domains shown)
# VH: QVQLVQSGAEVKKPGSSVKVSCKASGGTFSNYAISWVRQAPGQGLEWMGGIIPIFGTANYAQKFQGRVTITADESTSTAYMELSSLRSEDTAVYYCARGPTVTATTSIGTHNWFDPWGQGTLVTVSS
# VL: EIVLTQSPATLSLSPGERATLSCRASQSVSSYLAWYQQKPGQAPRLLIYDASNRATGIPARFSGSGSGTDFTLTISSLEPEDFAVYYCQQRNFYPPTFGGGTKVEIK
# B2: 27589 (antibody, V domains shown)
# VH: QVQLVQSGAEVKKPGSSVKVSCKASGGTFSSYAISWVRQAPGQGLEWMGGIIPIFGTANYAQKFQGRVTITADESTSTAYMELSSLRSEDTAVYYCARDSGYHRHYSDYWGQGTLVTVSS
# VL: DIQMTQSPSTLSASVGDRVTITCRASQSISSWLAWYQQKPGKAPKLLIYKASSLESGVPSRFSGSGSGTEFTLTISSLQPDDFATYYCQQYGLFPITFGGGTKVEIKR
# B3: 27596 (antibody, V domains shown)
# VH: QVQLVQSGAEVKKPGSSVKVSCKASGGTFSSYAISWVRQAPGQGLEWMGGIIPIFGTANYAQKFQGRVTITADESTSTAYMELSSLRSEDTAVYYCARDPLGIRKHWFDPWGQGTLVTVSS
# VL: EIVMTQSPATLSLSPGERATLSCRASQSVSSYLAWYQQKPGQAPRLLIYDASNRATGIPARFSGSGSGTDFTLTISSLEPEDFAVYYCQQHTVWPITFGGGTKVEIKR
# B4: 27597 (antibody, V domains shown)
# VH: QVQLVQSGAEVKKPGSSVKVSCKASGGTFSSYAISWVRQAPGQGLEWMGSIIPIFGTANYAQKFQGRVTITADESTSTAYMELSSLRSEDTAVYYCAREGRGYDSSRYYKFWFDPWGQGTLVTVSS
# VL: B3 VL with M4L, H91F, T92V, V93L, I96R
# B5: 29852 (antibody, V domains shown)
# VH: QVQLVQSGAEVKKPGSSVKVSCKASGGTFSAMAISWVRQAPGQGLEWMGGILPIAGTANYAQKFQGRVTITADESTSTAYMELSSLRSEDTAVYYCARGGAKYASTYGMDVWGQGTTVTVSS
# VL: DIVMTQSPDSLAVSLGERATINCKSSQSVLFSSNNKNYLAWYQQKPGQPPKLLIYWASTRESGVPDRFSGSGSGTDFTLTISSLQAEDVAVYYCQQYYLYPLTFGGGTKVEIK
# B6: 31432 (antibody, V domains shown)
# VH: B5 VH with A31H, M32T, A55G, T106Q, Y107L
# VL: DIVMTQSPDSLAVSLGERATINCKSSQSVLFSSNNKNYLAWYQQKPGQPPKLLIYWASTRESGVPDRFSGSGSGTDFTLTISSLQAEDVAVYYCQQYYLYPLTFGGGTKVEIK
# B7: 28347 (antibody, V domains shown)
# VH: B5 VH with A31S, M32L, L52I, A55F, S77N
# VL: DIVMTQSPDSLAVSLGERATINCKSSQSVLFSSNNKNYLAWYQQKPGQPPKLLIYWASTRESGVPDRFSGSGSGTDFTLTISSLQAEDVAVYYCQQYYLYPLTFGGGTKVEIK
# B8: 29857 (antibody, V domains shown)
# VH: B5 VH with A31W, M32L, L52I, I54R, A55G
# VL: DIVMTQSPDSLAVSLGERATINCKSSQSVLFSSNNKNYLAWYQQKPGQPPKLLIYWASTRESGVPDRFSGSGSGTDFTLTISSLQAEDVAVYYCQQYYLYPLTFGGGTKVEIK
# B9: 31436 (antibody, V domains shown)
# VH: B5 VH with A31L, M32L, S105V, T106G
# VL: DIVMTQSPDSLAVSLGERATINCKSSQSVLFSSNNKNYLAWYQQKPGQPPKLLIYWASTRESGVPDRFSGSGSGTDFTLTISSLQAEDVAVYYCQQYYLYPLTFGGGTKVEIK
# B10: 29851 (antibody, V domains shown)
# VH: B5 VH with S30A, A31S, M32L, A55F, T57E
# VL: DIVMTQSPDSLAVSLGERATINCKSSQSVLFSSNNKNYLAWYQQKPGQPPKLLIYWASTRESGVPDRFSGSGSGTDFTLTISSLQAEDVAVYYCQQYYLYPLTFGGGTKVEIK
# B11: 31393 (antibody, V domains shown)
# VH: QVQLVQSGAEVKKPGSSVKVSCKASGGTFESYGISWVRQAPGQGLEWMGSIIPEFGIANYAQKFQGRVTITADESTSTTYMELSSLRSEDTAVYYCARESGGYRDHRLDVWGQGTMVTVSS
# VL: EIVMTQSPATLSVSPGERATLSCRASQSVGSNLAWYQQKPGQAPRLLIYGASTRATGIPARFSGSGSGTEFTLTISSLQSEDFAVYYCQQYLLWPLTFGGGTKVEIKR
# B12: 31873 (antibody, V domains shown)
# VH: B11 VH with E30S, S31K, T79A, D109G
# VL: B11 VL with T56S
# B13: 31861 (antibody, V domains shown)
# VH: B11 VH with E30G, T79A, G102T
# VL: B11 VL
# Biological target: T1, human CD39 on cells
# Assay: flow cytometry, 100 nM IgG, hCD39-CHO cells; MFI ratio to parental CHO
# Experimental: (§1) 100 nanomolar IgGs (each antibody is indicated as a unique clone number in the FIG.) were incubated at […] 30 minutes on ice in phosphate buffered saline (PBS) with parental CHO cells or CHO cells engineered to express either human or cynomolgus macaque (Macaca fascicularis) CD39 (CHO CD39 cells). Cells were then washed with ice cold PBS and incubated with a fluorescently labeled goat-anti-human IgG for 20 minutes on ice. Cells were washed and resuspended in ice cold PBS prior to analysis by flow cytrometry.
row,Cell Binding (FOB),Binder
1,33,B1
2,311,B2
3,252,B3
4,799,B4
5,337,B5
6,1170,B6
7,1020,B7
8,224,B8
9,1320,B9
10,129,B10
11,1060,B11
12,1320,B12
13,1430,B13

# Biological target: T2, rhCD39-ECD-His (R&D Systems)
# Assay: BLI (Octet), IgG on anti-human Fc sensor, rhCD39-ECD-His 10-300 nM, 1:1 fit
# Experimental: The kinetic data was globally fit with a simple 1:1 Langmuir binding model to yield on-rate (kon) and off-rate (koff) values. The equilibrium dissociation constants (KD) were calculated from the kon and koff values.
# Binding kinetics were measured using the Octet Red96 system (ForteBio) at 25° C. in running buffer (1× Pall ForteBio Kinetics Buffer diluted into PBS or Tris pH 7.4). […] After a short baseline step in running buffer, the sensors were exposed to varying concentrations (10-300 nM) of rhCD39-ECD-His (R&D Systems) for the association step. Dissociation of the complex was monitored upon exposure of the sensors to running buffer once again. Data was processed using ForteBio Octet software with baseline subtraction, global fit and 1:1 binding model to obtain association and dissociation rates. KD was calculated from the ratio of kd to kₐ.
Kd [nM],koff [s⁻¹],kon [M⁻¹ s⁻¹],Binder
131,0.023,176000,B1
191,0.0385,202000,B2
31.1,0.0533,1.72e+06,B3
335,0.0914,273000,B4
0.266,0.000134,503000,B5
1.07,0.000286,268000,B6
9.05,0.00815,901000,B7
0.76,0.000229,302000,B8
0.924,0.000243,263000,B9
1.23,0.000385,313000,B10
0.672,0.0002,298000,B11
0.922,0.000286,311000,B12
1.16,0.000286,246000,B13

# Biological target: T3, cynomolgus macaque (Macaca …)
# Assay: flow cytometry, 100 nM IgG, cCD39-CHO cells; MFI ratio to parental CHO
# Experimental: as §1
row,Cell Binding (FOB),Binder
1,44,B1
2,531,B2
3,257,B3
4,908,B4
5,1420,B5
6,5700,B6
7,1340,B7
8,1140,B8
9,3570,B9
10,398,B10
11,2960,B11
12,5080,B12
13,5480,B13
